The values below come from the supplement of paper PMC10567573.

B1: DLC1 (parent)
chain: AIQGISEKEKAEIEAKEACDWLRA
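Also: lentivirally expressed fusions sorted by FACS into six bins by GFP to DsRed ratio, PSI derived from sequencing read proportions per bin multiplied by bin number.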

Variants of B1 are the subject of this data set. Description: protein stability index of a GFP-peptide fusion (GPS, HEK-293T) (PSI 1-6); higher = more stable. The conditions noted are these: c terminus: a fixed tail appended.
As to AIQGISEKHKAEIEAKEACDWLRA [E9H], the protein stability index is 4.71.

Regarding AIQGISEKMKAEIEAKEACDWLRA [E9M], the protein stability index is 3.22.

Consider AIQGISEKYKAEIEAKEACDWLRA [E9Y], for which the protein stability index is 3.48.

AIQGISEKLKAEIEAKEACDWLRA [E9L]: the protein stability index is 2.97.

On to AIQGISEKCKAEIEAKEACDWLRA [E9C], for which the protein stability index was 3.76.

AIQGISEKAKAEIEAKEACDWLRA [E9A]: the protein stability index came to 4.19.

AIQGISEKEKAEIEAKEACDWLRQ [A24Q]: the protein stability index amounted to 4.67.

AIQGISEKEKAEIEAKEACDWLRI [A24I]: the protein stability index amounted to 4.44.

Consider AIQGISEKEKAEIEAKEACDWLRK [A24K], for which the protein stability index stood at 4.

AIQGISEKEKAEIEAKEACDWLRL [A24L]: the protein stability index turned out to be 4.46.

For the variant AIQGISEKEKAEIEAKEACDWLRM [A24M], the protein stability index was 3.52.

In the case of AIQGISEKEKAEIEAKEACDWLRY [A24Y], the protein stability index was determined as 4.72.

As for AIQGISEKEKAEIEAKEACDWLRR [A24R], the protein stability index came to 4.23.

For the variant AIQGISEKEKAEIEAKEACDWLRC [A24C], the protein stability index is 4.55.

On to AIQGISEKEKAEIEAKEACDWLRG [A24G], for which the protein stability index stood at 4.78.

AIQGISEKEKAEIEAKEACDWLRF [A24F]: the protein stability index worked out at 4.32.

Turning to AIQGISEKEKAEIEAKEACDWLRE [A24E], the protein stability index is 5.03.

On to AIQGISEKEKAEIEAKEACDPLRA [W21P], for which the protein stability index is 5.

With AIQGISEKEKAEIEAKEACDCLRA [W21C], the protein stability index is 5.35.

Regarding AIQGISEKEKAEIEAKEACDLLRA [W21L], the protein stability index came out at 5.22.

As for AIQGISEKEKAEIEAKEACDNLRA [W21N], the protein stability index was found to be 5.1.

As to AIQGISEKEKAEIEAKEACDKLRA [W21K], the protein stability index worked out at 5.44.

With AIQGISEKEKAEIEAKEACDTLRA [W21T], the protein stability index was determined as 5.17.

Consider AIQGISEKEKAEIEAEEACDWLRA [K16E], for which the protein stability index worked out at 5.21.

On to AIQGISEKEKAEIEAHEACDWLRA [K16H], for which the protein stability index worked out at 4.32.

As to AIQGISEKEKAEIEALEACDWLRA [K16L], the protein stability index came out at 4.1.

Take AIQGISEKEKAEIEAREACDWLRA [K16R]: the protein stability index is 4.55.

AIQGISEKEKAEIEANEACDWLRA [K16N]: the protein stability index is 4.82.

Regarding AIQGISEKEKAEIEAAEACDWLRA [K16A], the protein stability index came out at 4.35.

As to AIQGISEKEKAEIEAQEACDWLRA [K16Q], the protein stability index was found to be 4.44.

Take AIQGISEKEKAEIEMKEACDWLRA [A15M]: the protein stability index came to 4.24.

AIQGISEKEKAEIEKKEACDWLRA [A15K]: the protein stability index worked out at 4.61.

In the case of AIQGISEKEKAEIERKEACDWLRA [A15R], the protein stability index came to 4.18.

Consider AIQGISEKEKAEIEQKEACDWLRA [A15Q], for which the protein stability index stood at 4.52.

With AIQGISEKEKAEIEGKEACDWLRA [A15G], the protein stability index was 3.97.

For AIQGISEKEKAEIEEKEACDWLRA [A15E], the protein stability index came out at 4.81.

Take AIQGIEEKEKAEIEAKEACDWLRA [S6E]: the protein stability index was determined as 4.99.

On to AIQGILEKEKAEIEAKEACDWLRA [S6L], for which the protein stability index was determined as 3.56.

With AIQGIYEKEKAEIEAKEACDWLRA [S6Y], the protein stability index worked out at 3.48.

As to AIQGIHEKEKAEIEAKEACDWLRA [S6H], the protein stability index was determined as 4.28.

Consider AIQGIKEKEKAEIEAKEACDWLRA [S6K], for which the protein stability index was found to be 3.96.

Consider AIQGIWEKEKAEIEAKEACDWLRA [S6W], for which the protein stability index stood at 3.71.

Regarding AIQGIIEKEKAEIEAKEACDWLRA [S6I], the protein stability index came to 3.58.

For AIQGIPEKEKAEIEAKEACDWLRA [S6P], the protein stability index amounted to 4.88.

Take AIQGIFEKEKAEIEAKEACDWLRA [S6F]: the protein stability index came out at 3.86.

For AIQGIDEKEKAEIEAKEACDWLRA [S6D], the protein stability index came to 4.84.

Take ARQGISEKEKAEIEAKEACDWLRA [I2R]: the protein stability index came to 4.78.

As for AQQGISEKEKAEIEAKEACDWLRA [I2Q], the protein stability index was determined as 4.79.

With AFQGISEKEKAEIEAKEACDWLRA [I2F], the protein stability index worked out at 4.81.

For the variant ASQGISEKEKAEIEAKEACDWLRA [I2S], the protein stability index amounted to 4.99.

On to AIQGISENEKAEIEAKEACDWLRA [K8N], for which the protein stability index was found to be 3.88.

In the case of AIQGISEDEKAEIEAKEACDWLRA [K8D], the protein stability index was 4.61.

AIQGISEYEKAEIEAKEACDWLRA [K8Y]: the protein stability index was determined as 3.69.

AIQGISEIEKAEIEAKEACDWLRA [K8I]: the protein stability index was 4.5.

For the variant AIQGISEQEKAEIEAKEACDWLRA [K8Q], the protein stability index was determined as 4.3.

With AIQGISEPEKAEIEAKEACDWLRA [K8P], the protein stability index stood at 4.72.

For AIQGISEKETAEIEAKEACDWLRA [K10T], the protein stability index came out at 4.68.

With AIQGISEKEQAEIEAKEACDWLRA [K10Q], the protein stability index stood at 4.57.

On to AIQGISEKERAEIEAKEACDWLRA [K10R], for which the protein stability index is 4.04.

Turning to AIQGISEKEDAEIEAKEACDWLRA [K10D], the protein stability index was determined as 4.47.

Regarding AIQGISEKEIAEIEAKEACDWLRA [K10I], the protein stability index came to 3.8.

Take AIQGISEKEKAEIEAKEACQWLRA [D20Q]: the protein stability index was determined as 3.91.

AIQGISEKEKAEIEAKEACAWLRA [D20A]: the protein stability index came to 3.99.

In the case of AIQGISEKEKAEIEAKEACPWLRA [D20P], the protein stability index came to 3.56.

AIQGISEKEKAEIEAKEACCWLRA [D20C]: the protein stability index was 3.21.

On to AIQGISEKEKAEIEAKEACGWLRA [D20G], for which the protein stability index was determined as 3.56.

Regarding AIQGISEKEKAEIEAKEACWWLRA [D20W], the protein stability index came to 3.98.

As for AIQGISEKEKAEIEAKEACIWLRA [D20I], the protein stability index turned out to be 3.35.

For AIQGISEKEKAEIEAKEACRWLRA [D20R], the protein stability index came out at 3.19.

With AIQGISEKEKAEIEAKEACHWLRA [D20H], the protein stability index came to 3.95.

For AIQGISEKEKAEIEAKEADDWLRA [C19D], the protein stability index is 5.19.

Regarding AIQGISEKEKAEIEAKEAADWLRA [C19A], the protein stability index was 4.79.

In the case of AIQGISEKEKAEIEAKEALDWLRA [C19L], the protein stability index was determined as 3.98.

Consider AIQGISEKEKAEIEAKEANDWLRA [C19N], for which the protein stability index stood at 4.89.

As for AIQGISEKEKAEIEAKEAFDWLRA [C19F], the protein stability index worked out at 4.47.

Consider AIQGISEKEKAEIEAKEAYDWLRA [C19Y], for which the protein stability index was 4.64.

For AIQGISEKEKAEIEAKEAPDWLRA [C19P], the protein stability index was 4.33.

For AIQGISEKEKAEIEAKEAHDWLRA [C19H], the protein stability index was determined as 4.75.

Consider AIQGISQKEKAEIEAKEACDWLRA [E7Q], for which the protein stability index came to 4.06.

In the case of AIQGISIKEKAEIEAKEACDWLRA [E7I], the protein stability index was found to be 3.63.

As for AIQGISCKEKAEIEAKEACDWLRA [E7C], the protein stability index came out at 3.61.

As for AIQGISDKEKAEIEAKEACDWLRA [E7D], the protein stability index was 4.39.

Take AIQGISMKEKAEIEAKEACDWLRA [E7M]: the protein stability index was determined as 3.67.

Turning to AIQGISFKEKAEIEAKEACDWLRA [E7F], the protein stability index came out at 3.44.

Regarding AIQGISSKEKAEIEAKEACDWLRA [E7S], the protein stability index was 4.15.

On to AIQGISLKEKAEIEAKEACDWLRA [E7L], for which the protein stability index was determined as 3.06.

Turning to AIQGISRKEKAEIEAKEACDWLRA [E7R], the protein stability index worked out at 3.62.

Turning to AIQGISGKEKAEIEAKEACDWLRA [E7G], the protein stability index was 4.22.

Consider AIQGISEKEKAEIEAKPACDWLRA [E17P], for which the protein stability index stood at 4.41.

Take AIQGISEKEKAEIEAKKACDWLRA [E17K]: the protein stability index amounted to 4.23.

As for AIQGISEKEKAEIEAKLACDWLRA [E17L], the protein stability index was 3.76.

Consider AIQGISEKEKAEIEAKTACDWLRA [E17T], for which the protein stability index worked out at 4.34.

For the variant AIQGISEKEKAEIEAKNACDWLRA [E17N], the protein stability index worked out at 3.63.

Consider AIQGISEKEKAEIEAKMACDWLRA [E17M], for which the protein stability index was determined as 3.86.
